The subject of one assay is Abl kinase. Nature of the assay: Kinase-directed TSAC assembly, MRI T2 mapping. It counts as biochemical. The settings on record: free phosphopeptide added to Abl kinase-assembled TSACs. How it is done:
Kinase reaction was initiated by adding indicated amount of Abl kinase (New England Biolabs). TSAC assemblies were characterized by DLS over time or MRI.
All TSAC solutions were prepared in final concentration of 10 μg Fe/ml (12 nM TSAC concentration) in 70 μl of kinase reaction buffer. TSAC mixtures were incubated at 30° C. for 3 hours after kinase additions (0, 0.05, 0.1, 0.2, 0.5 U/μl), and then MRI images were taken using a 4.7 T Bruker magnet (7 cm bore) using T2-mapping Carr-Purcell-Meiboom-Gill (CPMG) pulse sequence. To reverse assembly, 4 U/μl YOP phosphatase or 0.1 mM free pY-peptide was added to an assembled TSAC solution containing 0.2 U/μl Abl kinase. The MRI image was taken after 10 minutes at room temperature.

In a further assay the target is T1, Crk SH2 domain (Homo sapiens, UniProt P46108).
T1 construct: The Crk SH2 domain was genetically modified to contain an N-terminal cysteine; GST (N, cleaved yes); made in house; host or cells: E. coli BL21-Gold(DE3)
Nature of the assay: SH2-binding peptide-mediated TSAC assembly, dynamic light scattering.

A further assay deals with Crk SH2 (Homo sapiens, UniProt P46108). Particulars: free peptide; cited from earlier work.

The text below walks through data of patent publication US20090246142A1, “Triggered Self-Assembly of Nanoparticles In Vivo” (MASSACHUSETTS INSTITUTE OF TECHNOLOGY, priority 2006, published 2009).

Square brackets hold non-standard residues; d marks the D form. pY = N[C@@H](Cc1ccc(OP(=O)(O)O)cc1)C(=O)O; Ahx = NCCCCCC(=O)O

T1 sequence (P46108 13-118 limits assumed): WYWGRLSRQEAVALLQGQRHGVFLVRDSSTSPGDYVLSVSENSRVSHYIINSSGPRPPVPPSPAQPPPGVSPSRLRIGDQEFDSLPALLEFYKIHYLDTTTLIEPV
Crk SH2, sequence (P46108 13-118 limits assumed): as above
Abl kinase, sequence (P00521 128-379): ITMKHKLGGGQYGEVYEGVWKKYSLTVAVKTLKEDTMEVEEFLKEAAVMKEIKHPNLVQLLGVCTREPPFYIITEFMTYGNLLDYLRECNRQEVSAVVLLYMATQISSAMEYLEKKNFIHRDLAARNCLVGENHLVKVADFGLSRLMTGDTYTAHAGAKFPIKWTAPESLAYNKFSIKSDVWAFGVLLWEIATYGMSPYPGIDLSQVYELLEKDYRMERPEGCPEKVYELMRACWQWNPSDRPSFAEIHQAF

Take “TAMRA-(Ahx)SRVGEEEHVpYSFPNKQKSAEC-CONH2 [free pY-Abl substrate]”: in the assay on Abl kinase, the “effect of free substrate on kinase-directed T2 enhancement” value was “lost”.
For “TAMRA-C(Ahx)QpYDHPNI-CONH2 ({TAMRA}-C[Ahx]Q[pY]DHPNI-NH2; not fully specified) [free pY peptide]”, the “reversal of pY TSAC / SH2 TSAC assembly by added free peptide” value with Crk SH2 domain (200 μM free peptide added after 10 minute incubation) is “rapidly disassembled”. In addition, the “effect of free peptide on pY TSAC / SH2 TSAC assembly” value with Crk SH2 domain (200 μM free peptide present) was “inhibited”. In addition, the “binding affinity to Crk SH2” value with Crk SH2 is listed as “low μM”.
